In publication PMC8527181:

Key:
[1] = molecular target: Ptr4CL (endogenous in SDX extract, member not told); assay: cross-linking; crude SDX extract (25 mM sodium phosphate buffer, pH 7.4) cross-linked with DSP, SDS-PAGE, western blot with PtrHCT1 and PtrHCT6 specific antibodies
[2] = molecular target: Ptr4CL5-6 × His, recombinant (Populus trichocarpa); assay: cross-linking; recombinant Ptr4CL and PtrHCT, 200 nM each in PBS, DSP at 20-fold molar excess, room temperature 5 min, SDS-PAGE, western blot with Ptr4CL3 and PtrHCT1 antibodies
[3] = molecular target: Ptr4CL3-6 × His, recombinant (Populus trichocarpa); assay: as above

stoichiometry N (PtrHCT per Ptr4CL) [1] | stoichiometry N (PtrHCT per Ptr4CL) [2] | stoichiometry N (PtrHCT per Ptr4CL) [3] | Substance
2 |  |  | PtrHCT1, endogenous in SDX protein extract (enzyme)
 | 2 | 2 | PtrHCT1-6 × His, recombinant (enzyme)
2 |  |  | PtrHCT6, endogenous in SDX protein extract (enzyme)
 |  | 2 | PtrHCT6-6 × His, recombinant (enzyme)
